Assay results taken from the supplement of paper PMC10899765.

Assays:
Settings in all cases: 20 nM; 72 h
MCF10A [1] = test: percent viability (nuclei count relative to siNT); higher = more viable cells
Description: (§1)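 After 72 h, cells were fixed and stained with Hoechst and anti-fibrillarin, and nucleoli per nucleus were counted with CellProfiler. Values are plate-adjusted percent effect for the one-nucleolus and 5+ nucleoli phenotypes, normalised to siNT (0%) and to the positive controls siNOL11 or siKIF11 (100%), as the mean of biological triplicates. Percent viability is the nuclei count relative to siNT.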

MCF10A [2] = test: 5+ nucleoli phenotype percent effect (relative to siNT 0% and siKIF11 100%); higher = more cells with five or more nucleoli
Description: as §1

MCF10A [3] = test: one-nucleolus phenotype percent effect (relative to siNT 0% and siNOL11 100%); higher = more cells with one nucleolus (ribosome biogenesis inhibition)
Description: as §1

Row | Sequence | percent viability (MCF10A [1]) [%] | 5+ nucleoli phenotype percent effect (MCF10A [2]) [%] | one-nucleolus phenotype percent effect (MCF10A [3]) [%]
1 | UCCACUCUCCUGGCCCCCAG [hsa-miR-6777-3p] | 51 | 14.3 | -16.2
2 | UCCAGCAUCAGUGAUUUUGUUG [hsa-miR-338-3p] | 98.2 | 26.3 | -13.2
3 | UCCAGCUCGGUGGCAC [hsa-miR-4267] | 34.5 | 11.3 | -0.0012
4 | UCCAGGCAGGAGCCGGACUGGA [hsa-miR-4673] | 62.5 | 14.9 | -17.9
5 | UCCAGGGAGACAGUGUGUGAG [hsa-miR-7113-5p] | 32.5 | -2.05 | 23.5
6 | UCCAGUACAGGUCUCUCAUUUC [hsa-miR-4712-5p] | 81.3 | -15.1 | 11
7 | UCCAGUACCACGUGUCAGGGCCA [hsa-miR-770-5p] | 55.6 | -28.6 | 29.4
8 | UCCAGUGCCCUCCUCUCC [hsa-miR-1825] | 70.3 | -2.13 | -8.72
9 | UCCAUGUUUCCUUCCCCCUUCU [hsa-miR-4716-5p] | 28.8 | -43.5 | 45.4
10 | UCCAUUACACUACCCUGCCUCU [hsa-miR-885-5p] | 71.4 | -8.23 | -5.62
11 | UCCCAAGGGUGAGAUGCUGCCA [hsa-miR-6814-5p] | 48.6 | -13.3 | 7.66
12 | UCCCACGUUGUGGCCCAGCAG [hsa-miR-662] | 128 | 35.3 | -20.4
13 | UCCCACUACUUCACUUGUGA [hsa-miR-4301] | 45.1 | 60.9 | -19.4
14 | UCCCAGGGUCUGGUCAGAGUUG [hsa-miR-6764-5p] | 25.8 | -18.4 | 29.5
15 | UCCCCAACCCCUGCCCGCAG [hsa-miR-6793-3p] | 27.6 | -15.2 | 13.9
16 | UCCCCCAGGUGUGAUUCUGAUUU [hsa-miR-361-3p] | 74.8 | 21.5 | -5.19
17 | UCCCCUCCACUUUCCUCCUAG [hsa-miR-6887-3p] | 33.5 | -13.1 | -0.315
18 | UCCCCUGCUCCCUUGUUCCCCAG [hsa-miR-6810-3p] | 35.1 | 4.97 | 3.27
19 | UCCCCUUCCUCCCUGCCCAG [hsa-miR-6756-3p] | 51.9 | 16.4 | -12.3
20 | UCCCCUUCUGCAGGCCUGCUGG [hsa-miR-3127-3p] | 144 | 34.9 | -24.5
21 | UCCCUACCCCUCCACUCCCCA [hsa-miR-3162-3p] | 75.9 | 53.4 | -5.78
22 | UCCCUCCUUCUGUCCCCACAG [hsa-miR-4667-3p] | 71.8 | -12.9 | -2.78
23 | UCCCUCGCCUUCUCACCCUCAG [hsa-miR-6803-3p] | 58.1 | 25.3 | -18.8
24 | UCCCUCUCCCACCCCUUGCAG [hsa-miR-6892-3p] | 52.2 | 42.4 | -29
25 | UCCCUGAGACCCUAACUUGUGA [hsa-miR-125b-5p] | 93.8 | 17.3 | -11.8
